Data taken from patent US5498695A, “Paranitroaniline peptides” (Pfizer Inc., priority 1994, dated 1996).

Key:
Experiment in all cases: Spectrophotometric hydrolysis of pNA substrates by immobilized ICE (release of pNA at 405 nM)
Assay type in all cases: biochemical, Human
Conditions in all cases: other: pNA substrate 0.01 to 1.5 mM, 25° C., pH 7
[1] = substrate: CC(C)[C@H](NC(=O)OC(C)(C)C)C(=O)N[C@@H](C)C(=O)N[C@@H](CC(=O)O)C(=O)Nc1ccc([N+](=O)[O-])cc1
Experimental: (§1) Other procedures for purification and assaying ICE are disclosed in Black et al., FEBS Letters, 247, 386-390 (1989), and Thornberry et al., Nature, 356, 768-774 (1992). Cell Culture And Lysates.
(§2) Human monocyte cell line, THP-1 (ATCC-TIB 202) was grown in RPMI media 1640 (Gibco BRL Gaithersburg, Md. 20877) with 10% fetal bovine serum, harvested by centrifugation, washed twice in Dulbecco's PBS […] without Ca^++, and resuspended in 10 mM Tris-HCl pH 8 buffer containing 5 mM DTT (dithiothreitol), 1 mM EDTA (ethylene diamine tetraacetic acid), 1 mM PMSF (phenylmethyl sulfonylfluoride), 1 μg/ml pepstatin, and 1 μg/ml leupeptin at 1-3×10^8 cells per ml. Cells were frozen at -70° C. until use and then lysed by thawing. Lysates were cleared by centrifugation at 20,000× g for 1 hour followed by 120,000×g for 1 hour.
(§3) ICE activity was purified from THP-1 cell lysates by three chromatographic steps: (A) Thp-1 cell lysate (1.5L) was desalted by G25 column chromatography (Pharmacia LKB Biotechnology) (B) The protein fraction was then subjected to ion-exchange chromatography on Q-Sepharose Fast Flow (Pharmacia LKB Biotechnology) in buffer A (20 mM Tris pH 7.8 containing 5 mM EDTA, 1 mM PMSF, 1 μg/ml pepstatin, and 1 μg/ml leupeptin). ICE activity was eluted with a gradient of NaCl in buffer A. (C) The active fractions from B were desalted, concentrated and subjected to MonoQ (trademark) (Pharmacia LKB Biotechnology) column chromatography. ICE activity was then eluted in a NaCl gradient. Active ICE fractions from C were pooled and used to bind immunoaffinity beads containing covalently linked antibodies raised against the first […] N-terminal residues of ICE (NH2 -Asp-Pro-Ala-Met-Pro-Thr-Ser-Ser-Val-Lys-Leu-Cys(SEQ ID NO:2)-CONH2).
(§4) Immobilization of ICE to immunoaffinity beads was done following standard protocols. Briefly, IgG fractions were covalently linked to protein A beads as described by the manufacturers (Antibody Orientation Kit Protein A Agarose supplied by Affinica (trademark) (Product manufactured by Schleicher and Schuell)). Protein A beads were pelleted by centrifugation and washed with 5 times their volume with Affinica (trademark) supplied "binding buffer". IgG, appropriately diluted in "binding buffer," was then bound to the beads. The beads were then washed and the bound IgG was covalently linked with dimethyl suberimidate. After the reaction was stopped with the "quenching buffer" supplied by Affinica (trademark), the immunoaffinity beads were washed and stored in PBS buffer containing 0.02% NAN3. […]
(§5) The enzymatic reaction was monitored spectrophotometrically at […]. The increase in absorbance at this wave length resulted from the release of pNA chromophore after hydrolysis by ICE of the peptidic-pNA substrate. […]

[2] = substrate: CC(=O)N[C@H](C(=O)N[C@@H](C)C(=O)N[C@@H](CC(=O)O)C(=O)Nc1ccc([N+](=O)[O-])cc1)C(C)C
Experimental: as §1, §2, §3, §4, §5

[3] = substrate: CC(C)[C@H](NC(=O)OCc1ccccc1)C(=O)N[C@@H](C)C(=O)N[C@@H](CC(=O)O)C(=O)Nc1ccc([N+](=O)[O-])cc1
Experimental: as §1, §2, §3, §4, §5

[4] = substrate: CC(=O)N[C@@H](Cc1ccc(O)cc1)C(=O)N[C@H](C(=O)N[C@@H](C)C(=O)N[C@@H](CC(=O)O)C(=O)Nc1ccc([N+](=O)[O-])cc1)C(C)C
Experimental: as §1, §2, §3, §4, §5

B1: interleukin 1β converting enzyme (ICE) (Homo sapiens) (protein)
chain 1: NPAMPTSSGSEGNVKLCSLEEAQRIWKQKSAEIYPIMDKSSRTRLALIICNEEFDSIPRRTGAEVDITGMTMLLQNLGYSVDVKKNLTASDMTTELEAFAHRPEHKTSDSTFLVFMSHGIREGICGKKHSEQVPDILQLNAIFNMLNTKNCPSLKDKPKVIIIQACRGDSPGVVWFKD
chain 2: AIKKAHIEKDFIAFCSSTPDNVSWRHPTMGSVFIGRLIEHMQEYACSCDVEEIFRKVRFSFEQPDGRAQMPTTERVTLTRCFYLFPGH
notes: ICE activity was purified from THP-1 cell lysates by three chromatographic steps; endogenous in cells; host or cells: THP-1 (ATCC-TIB 202) human monocyte cell line; Lysate was purified over G25, Q-Sepharose and MonoQ, then captured on protein A agarose beads carrying anti-ICE antibody
Km [1]: 443 µM | Km [2]: 447 µM | Km [3]: 97.9 µM | Km [4]: 43.8 µM
